Experiments:
[1] = target: HLA-DR on MN-60 cells (human); assay: flow cytometry, MN-60 cells stained with FITC-labelled L243 (HLA-DR expression)
[2] = target: HLA-DR on L1236 cells (human); assay: flow cytometry, L1236 cells stained with FITC-labelled L243 (HLA-DR expression)
[3] = target: HLA-DR on L-428 cells (human); assay: flow cytometry, L-428 cells stained with FITC-labelled L243 (HLA-DR expression)
[4] = target: HLA-DR on GRANTA-519 cells (human); assay: flow cytometry, GRANTA-519 cells stained with FITC-labelled L243 (HLA-DR expression)
[5] = target: HLA-DR on NALM-1 cells (human); assay: flow cytometry, NALM-1 cells stained with FITC-labelled L243 (HLA-DR expression)
[6] = target: HLA-DR on KARPAS-422 cells (human); assay: flow cytometry, KARPAS-422 cells stained with FITC-labelled L243 (HLA-DR expression)
[7] = target: HLA-DR on L-363 cells (human); assay: flow cytometry, L-363 cells stained with FITC-labelled L243 (HLA-DR expression)
[8] = target: HLA-DR on MHH-CALL-4 cells (human); assay: flow cytometry, MHH-CALL-4 cells stained with FITC-labelled L243 (HLA-DR expression)
[9] = target: HLA-DR on EOL-1 cells (human); assay: flow cytometry, EOL-1 cells stained with FITC-labelled L243 (HLA-DR expression)
[10] = target: HLA-DR on HC-1 cells (human); assay: flow cytometry, HC-1 cells stained with FITC-labelled L243 (HLA-DR expression)
[11] = target: HLA-DR on HD-MY-Z cells (human); assay: flow cytometry, HD-MY-Z cells stained with FITC-labelled L243 (HLA-DR expression)
[12] = target: HLA-DR on SR-786 cells (human); assay: flow cytometry, SR-786 cells stained with FITC-labelled L243 (HLA-DR expression)
[13] = target: HLA-DR on BJAB cells (human); assay: flow cytometry, BJAB cells stained with FITC-labelled L243 (HLA-DR expression)
[14] = target: HLA-DR on MHH-PREB-1 cells (human); assay: flow cytometry, MHH-PREB-1 cells stained with FITC-labelled L243 (HLA-DR expression)
[15] = target: HLA-DR (allele and form not stated); assay: not stated (Z. A. Nagy, unpublished)
[16] = target: HLA-DR on DOHH-2 cells (human); assay: flow cytometry, DOHH-2 cells stained with FITC-labelled L243 (HLA-DR expression)
[17] = target: HLA-DR on LP-1 cells (human); assay: flow cytometry, LP-1 cells stained with FITC-labelled L243 (HLA-DR expression)
[18] = target: HLA-DR on BONNA-12 cells (human); assay: flow cytometry, BONNA-12 cells stained with FITC-labelled L243 (HLA-DR expression)
[19] = target: HLA-DR on LG-2 cells (human); assay: flow cytometry, LG-2 cells stained with FITC-labelled L243 (HLA-DR expression)
[20] = target: HLA-DR on HDLM-2 cells (human); assay: flow cytometry, HDLM-2 cells stained with FITC-labelled L243 (HLA-DR expression)
[21] = target: HLA-DR on DOHH-2 cells (human); assay: cell-based or functional assay
[22] = target: HLA-DR on EOL-1 cells (human); assay: cell-based or functional assay
[23] = target: HLA-DR on RPMI-8226 cells (human); assay: cell-based or functional assay
[24] = target: HLA-DR on GRANTA-519 cells (human); assay: cell-based or functional assay
[25] = target: HLA-DR on L1236 cells (human); assay: cell-based or functional assay
[26] = target: HLA-DR on KARPAS-299 cells (human); assay: cell-based or functional assay
[27] = target: HLA-DR on KM-H2 cells (human); assay: cell-based or functional assay
[28] = target: HLA-DR on ARH-77 cells (human); assay: cell-based or functional assay
[29] = target: HLA-DR on MN-60 cells (human); assay: cell-based or functional assay
[30] = target: HLA-DR on NALM-1 cells (human); assay: cell-based or functional assay
[31] = target: HLA-DR on RAJI cells (human); assay: cell-based or functional assay
[32] = target: HLA-DR on SR-786 cells (human); assay: cell-based or functional assay
[33] = target: HLA-DR on HD-MY-Z cells (human); assay: cell-based or functional assay
[34] = target: HLA-DR on HDLM-2 cells (human); assay: cell-based or functional assay
[35] = target: HLA-DR on KARPAS-422 cells (human); assay: cell-based or functional assay
[36] = target: HLA-DR on LP-1 cells (human); assay: cell-based or functional assay
[37] = target: HLA-DR on BJAB cells (human); assay: cell-based or functional assay
[38] = target: HLA-DR on HC-1 cells (human); assay: cell-based or functional assay
[39] = target: HLA-DR on MHH-CALL-2 cells (human); assay: cell-based or functional assay
[40] = target: HLA-DR on BONNA-12 cells (human); assay: cell-based or functional assay
[41] = target: HLA-DR on LG-2 cells (human); assay: cell-based or functional assay
[42] = target: HLA-DR on MHH-CALL-4 cells (human); assay: cell-based or functional assay
[43] = target: HLA-DR on L-428 cells (human); assay: cell-based or functional assay
[44] = target: HLA-DR on MHH-PREB-1 cells (human); assay: cell-based or functional assay
[45] = target: HLA-DR on L-363 cells (human); assay: cell-based or functional assay
[46] = target: HLA-DR on ARH-77 cells (human); assay: flow cytometry, ARH-77 cells stained with FITC-labelled L243 (HLA-DR expression)
[47] = target: HLA-DR on KARPAS-299 cells (human); assay: flow cytometry, KARPAS-299 cells stained with FITC-labelled L243 (HLA-DR expression)
[48] = target: HLA-DR on RPMI-8226 cells (human); assay: flow cytometry, RPMI-8226 cells stained with FITC-labelled L243 (HLA-DR expression)
[49] = target: HLA-DR on RAJI cells (human); assay: flow cytometry, RAJI cells stained with FITC-labelled L243 (HLA-DR expression)
[50] = target: HLA-DR on KM-H2 cells (human); assay: flow cytometry, KM-H2 cells stained with FITC-labelled L243 (HLA-DR expression)
[51] = target: chimeric 0401-IE class II molecule on cells of transgenic mice (human/murine chimera); assay: cell-based or functional assay
[52] = target: HLA-DR on chronic lymphoid leukemia (CLL) cells of patients (human); assay: cell-based or functional assay

Chain of MS-GPC-8 IgG4 (antibody) (VH): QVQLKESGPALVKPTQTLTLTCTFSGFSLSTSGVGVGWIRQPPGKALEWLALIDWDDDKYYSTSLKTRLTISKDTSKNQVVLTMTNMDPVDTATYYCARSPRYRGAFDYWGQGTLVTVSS
Chain of MS-GPC-8 IgG4 (antibody) (VL): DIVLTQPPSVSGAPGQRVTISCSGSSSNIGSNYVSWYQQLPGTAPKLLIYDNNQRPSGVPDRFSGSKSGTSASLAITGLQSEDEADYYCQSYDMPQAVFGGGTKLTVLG
Chain of L243 (antibody) (VH): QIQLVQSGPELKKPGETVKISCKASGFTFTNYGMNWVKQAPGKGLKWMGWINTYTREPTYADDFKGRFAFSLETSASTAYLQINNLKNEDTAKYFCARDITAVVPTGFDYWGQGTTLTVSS
Chain of L243 (antibody) (VL): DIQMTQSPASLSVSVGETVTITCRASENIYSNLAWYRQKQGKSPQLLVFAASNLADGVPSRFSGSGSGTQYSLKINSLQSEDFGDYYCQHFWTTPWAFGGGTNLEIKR

Substance L243 (antibody) has an MFL (mean fluorescence intensity) [1] of 1120 MFL, an MFL (mean fluorescence intensity) [2] of 41 MFL and an MFL (mean fluorescence intensity) [3] of 244 MFL. The MFL (mean fluorescence intensity) [4] was 1460 MFL, the MFL (mean fluorescence intensity) [5] was 1080 MFL and the MFL (mean fluorescence intensity) [6] was 211 MFL. It also gave an MFL (mean fluorescence intensity) [7] of 49 MFL, an MFL (mean fluorescence intensity) [8] of 348 MFL and an MFL (mean fluorescence intensity) [9] of 536 MFL. The MFL (mean fluorescence intensity) [10] was 372 MFL, the MFL (mean fluorescence intensity) [11] was 79 MFL and the MFL (mean fluorescence intensity) [12] was 142 MFL. It also gave an MFL (mean fluorescence intensity) [13] of 338 MFL, an MFL (mean fluorescence intensity) [14] of 175 MFL and a Kd [15] of 10 nM. For the same substance, the MFL (mean fluorescence intensity) [16] was 444 MFL, the MFL (mean fluorescence intensity) [17] was 315 MFL and the MFL (mean fluorescence intensity) [18] was 2430 MFL. It also gave an MFL (mean fluorescence intensity) [19] of 458 MFL, an MFL (mean fluorescence intensity) [20] of 326 MFL and a % Killing by mAb, 200 nM, 4 h [21] of 29%. For the same substance, the % Killing by mAb, 200 nM, 4 h [22] was 22%, the % Killing by mAb, 200 nM, 4 h [23] was 6% and the % Killing by mAb, 200 nM, 4 h [24] was 83%. For the same substance, the % Killing by mAb, 200 nM, 4 h [25] was 52%, the % Killing by mAb, 200 nM, 4 h [26] was 78% and the % Killing by mAb, 200 nM, 4 h [27] was 81%. The % Killing by mAb, 200 nM, 4 h [28] was 88%, the % Killing by mAb, 200 nM, 4 h [29] was 46% and the % Killing by mAb, 200 nM, 4 h [30] was 44%. For the same substance, the % Killing by mAb, 200 nM, 4 h [31] was 69%, the % Killing by mAb, 200 nM, 4 h [32] was 3% and the % Killing by mAb, 200 nM, 4 h [33] was 35%. For the same substance, the % Killing by mAb, 200 nM, 4 h [34] was 77%, the % Killing by mAb, 200 nM, 4 h [35] was 25% and the % Killing by mAb, 200 nM, 4 h [36] was 12%. For the same substance, the % Killing by mAb, 200 nM, 4 h [37] was 53%, the % Killing by mAb, 200 nM, 4 h [38] was 88% and the % Killing by mAb, 200 nM, 4 h [39] was 5%. The % Killing by mAb, 200 nM, 4 h [40] was 92%, the % Killing by mAb, 200 nM, 4 h [41] was 79% and the % Killing by mAb, 200 nM, 4 h [42] was 35%. For the same substance, the % Killing by mAb, 200 nM, 4 h [43] was 82%, the % Killing by mAb, 200 nM, 4 h [44] was 3% and the % Killing by mAb, 200 nM, 4 h [45] was 6%. For the same substance, the MFL (mean fluorescence intensity) [46] was 301 MFL, the MFL (mean fluorescence intensity) [47] was 798 MFL and the MFL (mean fluorescence intensity) [48] was 19 MFL. For the same substance, the MFL (mean fluorescence intensity) [49] was 617 MFL and the MFL (mean fluorescence intensity) [50] was 619 MFL.

MS-GPC-8 IgG4 (antibody) showed a % Killing by mAb, 50 nM, 4 h [21] of 58%, a % Killing by mAb, 50 nM, 4 h [22] of 36% and a % Killing by mAb, 50 nM, 4 h [23] of 14%. The % Killing by mAb, 50 nM, 4 h [24] was 76%, the % Killing by mAb, 50 nM, 4 h [25] was 44% and the % Killing by mAb, 50 nM, 4 h [27] was 75%. For the same substance, the % Killing by mAb, 50 nM, 4 h [29] was 71%, the IC50 of inhibition of IL-2 secretion from T-Hyb 1 cells [51] was 11 nM and the Maximum inhibition(%) of IL-2 secretion [51] was 100%. The % Killing by mAb, 50 nM, 4 h [32] was 1%, the % Killing by mAb, 50 nM, 4 h [33] was 49% and the % Killing by mAb, 50 nM, 4 h [35] was 51%. It also gave a % Killing by mAb, 50 nM, 4 h [36] of 61%, a % Killing by mAb, 50 nM, 4 h [37] of 49% and a viable CLL cells after 24 hours, 100 nM IgG (told for all three human IgGs) [52] of 33%. For the same substance, the viable activated CLL cells after 4 hours, 100 nM IgG (average for all patient samples and antibodies) [52] was 24%, the % Killing by mAb, 50 nM, 4 h [42] was 43% and the % Killing by mAb, 50 nM, 4 h [44] was 2%. The % Killing by mAb, 50 nM, 4 h [45] was 26%.

Reference: patent US7521047
